Consider one molecule from patent US6365161 (Bristol-Myers Squibb, dated 2002).

For this test, the target named is T1, carcinoembryonic antigen (CEA) (UniProt P06731 35-685).
T1 sequence (looked up): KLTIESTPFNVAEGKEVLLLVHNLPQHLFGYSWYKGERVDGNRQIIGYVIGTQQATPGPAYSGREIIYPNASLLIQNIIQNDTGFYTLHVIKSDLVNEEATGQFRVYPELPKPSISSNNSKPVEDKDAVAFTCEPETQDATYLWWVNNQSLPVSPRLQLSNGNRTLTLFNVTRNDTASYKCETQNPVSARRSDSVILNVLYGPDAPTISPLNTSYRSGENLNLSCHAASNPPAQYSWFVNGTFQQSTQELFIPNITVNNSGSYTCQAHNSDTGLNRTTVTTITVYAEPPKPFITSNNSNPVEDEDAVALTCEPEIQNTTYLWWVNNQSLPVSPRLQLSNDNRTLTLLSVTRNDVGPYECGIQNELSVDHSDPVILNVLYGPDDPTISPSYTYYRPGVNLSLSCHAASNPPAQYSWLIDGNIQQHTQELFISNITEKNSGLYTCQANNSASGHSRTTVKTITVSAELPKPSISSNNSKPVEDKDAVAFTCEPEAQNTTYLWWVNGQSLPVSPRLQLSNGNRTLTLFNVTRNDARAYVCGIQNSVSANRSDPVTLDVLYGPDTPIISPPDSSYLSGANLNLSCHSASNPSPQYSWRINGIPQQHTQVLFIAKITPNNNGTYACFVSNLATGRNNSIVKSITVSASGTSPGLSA
As to the kind of experiment: bispecific ELISA, plates coated with CEA, detection with soluble FcγRI/IgM-µ. A general note: An ELISA detects its analyte on a solid surface through an enzyme-linked reagent.

Description: ELISA plates are coated with CEA and the blocked with 5% PBA.

B1: single chain antibody H22 encoded by construct 225 (scFv)
scFv: DIQLVESGGGVVQPGRSLRLSCSSSGFIFSDNYMYWVRQAPGKGLEWVATISDGGSYTYYPDSVKGRFTISRDNSKNTLFLQMDSLRPEDTGVYFCARGYYRYEGAMDYWGQGTPVTVSSGGGGSGGGGSGGGGSDIQLTQSPSSLSASVGDRVTITCKSSQSVLYSSNQKNYLAWYQQKPGKAPKLLIYWASTRESGVPSRFSGSGSGTDFTFTISSLQPEDIATYYCHQYLSSWTFGQGTKVEIKSSCSSGGGGSDIAAAEQKLISEEDLNGAAHHHHHH
notes: also called single chain H22 antibody
B1: the binding result is on record as “no binding”.
